The record followed here is patent publication US20220204633A1 (UNIVERSIT T Z RICH, published 2022).

The assay concerns the target T1, human recombinant biotinylated FcRn (Immunitrack) (human, UniProt P55899 24-297; P61769 21-119, limits assumed, biotinylated (site not stated)).
T1 construct: Immobilized on a ProteOn NLC chip for SPR at pH 6.0; also called human FcRn; human recombinant FcRn
The experiment in a line: SPR, human FcRn immobilized, IL-12Fc variants in liquid phase, pH 6.0. A general note: In SPR one partner is held on a chip, and binding of the other changes the refractive index at the surface.

T1 sequence (P55899 24-297 limits assumed, chain 1 of 2): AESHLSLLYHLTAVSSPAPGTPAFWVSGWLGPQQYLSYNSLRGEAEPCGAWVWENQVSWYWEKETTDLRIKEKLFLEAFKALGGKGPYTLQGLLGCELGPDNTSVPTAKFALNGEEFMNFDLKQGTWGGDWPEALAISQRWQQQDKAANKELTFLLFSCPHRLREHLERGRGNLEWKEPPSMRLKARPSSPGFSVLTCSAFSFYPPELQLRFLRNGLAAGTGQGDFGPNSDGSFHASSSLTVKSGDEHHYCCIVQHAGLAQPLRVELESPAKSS
T1 sequence (P61769 21-119 limits assumed, chain 2 of 2): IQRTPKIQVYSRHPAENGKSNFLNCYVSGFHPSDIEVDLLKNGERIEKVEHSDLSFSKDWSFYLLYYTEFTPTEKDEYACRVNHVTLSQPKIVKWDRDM

B1: human IL-12Fc NHQ (Fc fusion)
chain: IWELKKDVYVVELDWYPDAPGEMVVLTCDTPEEDGITWTLDQSSEVLGSGKTLTIQVKEFGDAGQYTCHKGGEVLSHSLLLLHKKEDGIWSTDILKDQKEPKNKTFLRCEAKNYSGRFTCWWLTTISTDLTFSVKSSRGSSDPQGVTCGAATLSAERVRGDNKEYEYSVECQEDSACPAAEESLPIEVMVDAVHKLKYENYTSSFFIRDIIKPDPPKNLQLKPLKNSRQVEVSWEYPDTWSTPHSYFSLTFCVQVQGKSKREKKDRVFTDKTSATVICRKNASISVRAQDRYYSSSWSEWASVPCSGGGGSGGGGSGGGGSRNLPVATPDPGMFPCLHHSQNLLRAVSNMLQKARQTLEFYPCTSEEIDHEDITKDKTSTVEACLPLELTKNESCLNSRETSFITNGSCLASRKTSFMMALCLSSIYEDLKMYQVEFKTMNAKLLMDPKRQIFLDQNMLAVIDELMQALNFNSETVPQKSSLEEPDFYKTKIKLCILLHAFRIRAVTIDRVMSYLNASKVDKRVESKYGPPCPPCPAPEFLGGPSVFLFPPKPKDTLMNSRTPEVTCVVVDVSQEDPEVQFNWYVDGVEVHNAKTKPREEQFNSTYRVVSVLTVLHQDWLNGKEYKCKVSNKGLPSSIEKTISKAKGQPREPQVYTLPPSPEEMTKNQVSLTCLVKGFYPSDIAVEWESNGQPENNYKTTPPVLDSDGSFFLYSRLTVDKSRWQEGNVFSCSVMHEALHNQYTQKSLSLSLGK
notes: also called NHQ variant
With B1, the “fold reduction of affinity against IL-12Fc WT” value is approximately 8 fold.
